B1: SCNN1D (parent)
chain: FLGHHSFSVRPGTEATISIREDEV
B2: CLK3 (parent)
chain: FGEDYYGPSRSRHRRRSRERGPYR

Variants of: B1
Assay: protein stability index of a GFP-peptide fusion (GPS, HEK-293T) (PSI 1-6); higher = more stable
Conditions: c terminus: a fixed tail appended
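Also: lentivirally expressed fusions sorted by FACS into six bins by GFP to DsRed ratio, PSI derived from sequencing read proportions per bin multiplied by bin number.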

| Variant | protein stability index |
| --- | --- |
| G3P | 4.02 |
| G3M | 1.42 |
| G3D | 2.77 |
| G3S | 2.42 |
| G3K | 3.02 |
| G3I | 1.59 |
| G3N | 2.26 |
| G3C | 2.51 |
| G3H | 2.71 |
| G3V | 1.64 |
| G3L | 2.28 |
| G3Y | 3.25 |
| G3R | 2.09 |
| G3A | 1.95 |
| G3E | 2.58 |
| G3F | 3.48 |
| G3T | 2.23 |
| H4R | 2.68 |
| H4T | 2.16 |
| H4E | 3.39 |
| H4P | 1.7 |
| H4F | 3.4 |
| H4Q | 1.32 |
| H4K | 2.16 |
| H4I | 2.64 |

| Variant | protein stability index |
| --- | --- |
| H4C | 1.39 |
| H4M | 1.58 |
| H4D | 3.7 |
| H4V | 1.77 |
| H4N | 2.29 |
| H4A | 2.74 |
| H4L | 2.08 |
| H4Y | 1.42 |
| H4S | 1.9 |
| H4G | 2.2 |
| S6E | 2.73 |
| S6V | 1.88 |
| S6G | 1.16 |
| S6C | 2.25 |
| S6K | 1.7 |
| S6Q | 1.76 |
| S6W | 1.85 |
| S6D | 2.13 |
| S6A | 3.88 |
| S6M | 2.96 |
| S6H | 2.08 |
| S6Y | 2.88 |
| S6N | 2.08 |
| S6T | 2.02 |
| S6F | 2.92 |

| Variant | protein stability index |
| --- | --- |
| S6R | 2.19 |
| S6P | 1.46 |
| H5K | 3.06 |
| H5E | 1.78 |
| H5P | 2.13 |
| H5Y | 1.89 |
| H5I | 1.64 |
| H5C | 1.53 |
| H5S | 1.75 |
| H5V | 1.33 |
| H5N | 1.71 |
| H5G | 2.3 |
| H5D | 2.02 |
| H5Q | 1.25 |
| H5T | 1.54 |
| H5A | 2.46 |
| H5R | 2.55 |
| H5M | 2.33 |
| H5L | 2.28 |
| H5W | 3.19 |
| F1D | 4.78 |
| F1M | 4.68 |
| F1W | 2.77 |
| F1A | 3.92 |
| F1G | 4.59 |

| Variant | protein stability index |
| --- | --- |
| F1V | 4.15 |
| F1E | 5.02 |
| F1N | 4.38 |
| F1Y | 1.97 |
| F1Q | 4.33 |
| F1H | 4.49 |
| F1T | 4.8 |
| F1R | 4.42 |
| F1L | 3.99 |
| F1S | 4.38 |
| F1I | 4.02 |
| F1K | 4.3 |
| F1C | 3.57 |
| F1P | 4.64 |
| S8D | 3.02 |
| S8E | 2.48 |
| S8R | 1.96 |
| S8F | 1.37 |
| S8P | 3.49 |
| S8T | 1.62 |
| S8G | 2.43 |
| S8H | 2.12 |
| S8K | 1.57 |
| S8A | 3.59 |
| S8Q | 1.78 |

| Variant | protein stability index |
| --- | --- |
| S8M | 1.75 |
| S8W | 2.68 |
| S8V | 1.8 |
| S8Y | 1.86 |
| S8N | 2.4 |
| S8C | 4.76 |
| S8I | 2.04 |
| S8L | 1.65 |
| F7R | 3.94 |
| F7I | 3.65 |
| F7E | 4.81 |
| F7A | 4.31 |
| F7P | 4.44 |
| F7T | 4.81 |
| F7N | 4.38 |
| F7S | 4.1 |
| F7C | 3.6 |
| F7Q | 3.98 |
| F7K | 4.54 |
| F7L | 4.01 |
| F7Y | 2.38 |
| F7D | 4.41 |
| F7W | 3.24 |
| F7V | 3.88 |
| F7M | 4.18 |

| Variant | protein stability index |
| --- | --- |
| F7H | 4.17 |
| F7G | 4.43 |
| R10E | 2.94 |
| R10K | 2.33 |
| R10H | 2.3 |
| R10A | 1.56 |
| R10F | 1.66 |
| R10N | 1.53 |
| R10D | 2.77 |
| R10G | 2.04 |
| R10I | 1.9 |
| R10S | 2.35 |
| R10T | 1.92 |
| R10Y | 1.63 |
| R10W | 1.63 |
| R10Q | 2.49 |
| R10M | 2.03 |
| R10V | 2.41 |
| R10L | 1.41 |
| R10P | 2.11 |
| R10C | 2.52 |
| V9N | 2.6 |
| V9Q | 2.86 |
| V9W | 1.64 |
| V9M | 2.42 |

| Variant | protein stability index |
| --- | --- |
| V9A | 2.36 |
| V9D | 3.54 |
| V9G | 3.44 |
| V9I | 2.26 |
| V9R | 3.8 |
| V9E | 2.83 |
| V9Y | 2.84 |
| V9L | 2.15 |
| V9H | 3.09 |
| V9P | 2.18 |
| V9F | 2.33 |
| V9S | 2.12 |
| V9T | 2.29 |
| V9C | 2.08 |
| V9K | 2.83 |
| G12F | 2.69 |
| G12I | 1.54 |
| G12Y | 1.15 |
| G12W | 1.42 |
| G12L | 1.71 |
| G12H | 1.81 |
| G12T | 1.67 |
| G12V | 1.57 |
| G12A | 2.2 |
| G12S | 1.55 |

| Variant | protein stability index |
| --- | --- |
| G12M | 1.85 |
| G12N | 2.05 |
| G12E | 1.88 |
| G12C | 2.24 |
| G12Q | 1.56 |
| G12D | 2.35 |
| G12P | 1.83 |
| G12R | 1.46 |
| G12K | 1.71 |
| P11T | 1.59 |
| P11E | 2.14 |
| P11S | 1.72 |
| P11H | 1.7 |
| P11W | 1.97 |
| P11Y | 1.99 |
| P11Q | 1.99 |
| P11A | 1.53 |
| P11M | 1.25 |
| P11G | 1.64 |
| P11R | 2.02 |
| P11K | 1.93 |
| P11D | 1.88 |
| P11F | 1.47 |
| P11V | 1.53 |
| P11N | 1.98 |

| Variant | protein stability index |
| --- | --- |
| P11I | 2.14 |
| P11L | 1.82 |
| L2A | 1.66 |
| L2C | 2.18 |
| L2N | 3.15 |
| L2R | 4.48 |
| L2E | 4.5 |
| L2P | 1.72 |
| L2H | 1.33 |
| L2K | 4.07 |
| L2M | 1.95 |
| L2V | 2.64 |
| L2Y | 3.44 |
| L2S | 1.76 |
| L2Q | 1.95 |
| L2D | 5.03 |
| L2I | 2.44 |
| L2G | 2.72 |
| L2W | 2.4 |
| L2F | 2.93 |
| L2T | 3.09 |

Variants of: B2
Assay: as above
Conditions: c terminus: a fixed tail appended

| Variant | protein stability index |
| --- | --- |
| R24S | 2.46 |
| R24C | 1.92 |
| R24F | 2.8 |
| R24L | 1.96 |
| R24Y | 2.35 |
| R24G | 3.26 |
| R24H | 2.67 |
| R24T | 1.81 |
| R24N | 2.46 |
| R24K | 2.62 |
| R24D | 1.9 |
| R24E | 2.32 |
| R24M | 2.85 |
| R24Q | 2.14 |
| R24W | 2.18 |
| R24V | 2.46 |
| R24P | 3.48 |
| R24I | 2.68 |
| R24A | 2.02 |
| G21F | 3.47 |
| G21L | 2.91 |
| G21K | 3.15 |
| G21W | 4.06 |

| Variant | protein stability index |
| --- | --- |
| G21D | 2.47 |
| G21I | 2.93 |
| G21S | 1.41 |
| G21M | 3.38 |
| G21P | 2.95 |
| G21T | 2.53 |
| G21N | 2.33 |
| G21C | 3.2 |
| G21A | 2.69 |
| G21Y | 3.37 |
| G21H | 3.13 |
| G21R | 3.2 |
| G21Q | 2.8 |
| G21V | 2.39 |
| G21E | 2.11 |
| Y23D | 2.89 |
| Y23Q | 3.46 |
| Y23F | 1.65 |
| Y23E | 2.35 |
| Y23P | 2.61 |
| Y23T | 2.27 |
| Y23H | 2.38 |
| Y23L | 2.16 |

| Variant | protein stability index |
| --- | --- |
| Y23W | 2.46 |
| Y23M | 2.48 |
| Y23V | 3.15 |
| Y23G | 2.43 |
| Y23N | 2.67 |
| Y23R | 2.11 |
| Y23A | 2.19 |
| Y23C | 2.47 |
| Y23S | 2.62 |
| Y23I | 2.31 |
| Y23K | 2.3 |
| E19D | 3.87 |
| E19M | 4.15 |
| E19Q | 3.2 |
| E19I | 3.96 |
| E19G | 4.06 |
| E19R | 4.55 |
| E19T | 3.81 |
| E19P | 4.39 |
| E19S | 3.65 |
| E19L | 3.42 |
| E19K | 4.05 |
| E19C | 4.35 |

| Variant | protein stability index |
| --- | --- |
| E19N | 3.95 |
| E19H | 4.09 |
| E19W | 4.71 |
| E19Y | 3.94 |
| E19F | 4.17 |
| E19V | 4.11 |
| P22I | 2.2 |
| P22K | 2.19 |
| P22M | 2.54 |
| P22F | 2.62 |
| P22T | 2.82 |
| P22S | 2.21 |
| P22G | 2.54 |
| P22A | 2.82 |
| P22E | 2.05 |
| P22H | 2.65 |
| P22V | 3.03 |
| P22C | 2.8 |
| P22N | 2.54 |
| P22W | 3.26 |
| P22Y | 2.39 |
| P22L | 2.37 |
| P22D | 2.8 |

| Variant | protein stability index |
| --- | --- |
| P22Q | 2.65 |
| P22R | 1.97 |
| R20G | 2.21 |
| R20T | 2.39 |
| R20Y | 2.3 |
| R20I | 2.21 |
| R20W | 2.85 |
| R20Q | 2.79 |
| R20P | 2.65 |
| R20N | 2.11 |
| R20D | 2.56 |
| R20L | 2.45 |
| R20S | 2.24 |
| R20K | 2.62 |
| R20H | 2.44 |
| R20C | 2.72 |
| R20M | 2.3 |
| R20V | 2.22 |
| R20F | 3.04 |
| R20E | 2.27 |
| R20A | 2.47 |
